Source: article PMC3437550

Target: Torpedo californica nicotinic acetylcholine receptor (Torpedo californica) (UniProt P02710)
Test: SEC

## Torpedo californica nicotinic acetylcholine receptor (from UniProt P02710 25-461; P02712 25-493; P02714 18-506; P02718 22-522) (complex)
  percent dimer: 72.7%
